Data published in article PMC10574248.

system: RBP7910 (Trypanosoma brucei); assay: MST; settings: RBB50: 20 mM HEPES pH 7.6, 150 mM KCl, 5 mM MgCl2, 100 ug/mL BSA, 10% glycerol, 50 nM oligo, room temperature 30-60 min, errors are 68% confidence

First: GGTGGGTTATCGCGCGCGCGCGATCAACTGGG (double strand) [d(GC)6 ds]
Second: GGTGGGTTATCGCGCGCGCGCGATCAACTGGG [d(GC)6 ss]
The Kd of the first is 20-fold higher: 444 nM for the first, 22 nM for the second. The second binds more tightly here.

Compared with “GGUGGGUUAUAUUCAUUCAUUCAUCAACUGGG / CCCAGUUGAUGAAUGAAUGAAUAUAACCCACC [r(AUUC)3 ds]”, “GGUGGGUUAUAUUCAUUCAUUCAUCAACUGGG [r(AUUC)3 ss]” is 4.5-fold lower in Kd: 1230 nM for the first, 272 nM for the second. The second binds more tightly here.

First: GGUGGGUUAUAUUUAUUUAUUUAUUUAUCAACUGGG / CCCAGUUGAUAAAUAAAUAAAUAAAUAUAACCCACC [r(AUUU)4 ds]
Second: GGUGGGUUAUAUUUAUUUAUUUAUUUAUCAACUGGG [r(AUUU)4 ss]
The Kd of the first is 10-fold higher: 1880 nM for the first, 180 nM for the second. The second binds more tightly here.

Compared with “GGUGGGUUAUCGCGCGCGCGCGAUCAACUGGG / CCCAGUUGAUCGCGCGCGCGCGAUAACCCACC [r(GC)6 ds]”, “GGUGGGUUAUCGCGCGCGCGCGAUCAACUGGG [r(GC)6 ss]” is 1.6-fold lower in Kd: 3220 nM for the first, 2030 nM for the second. The second binds more tightly here.

Compared with “GGUGGGUUAUUAUAUAUAUAUAAUCAACUGGG / CCCAGUUGAUUAUAUAUAUAUAAUAACCCACC [r(UA)6 ds]”, “GGUGGGUUAUUAUAUAUAUAUAAUCAACUGGG [r(UA)6 ss]” is 1.5-fold lower in Kd: 1340 nM for the first, 880 nM for the second. The second binds more tightly here.

First: GGUGGGUUAUUUUUUUUUUUUUAUCAACUGGG / CCCAGUUGAUAAAAAAAAAAAAAUAACCCACC [r(UUUU)3 ds]
Second: GGUGGGUUAUUUUUUUUUUUUUAUCAACUGGG [r(UUUU)3 ss]
The Kd of the first is 12-fold higher: 1710 nM for the first, 147 nM for the second.
